US20080247951A1 (Genentech, published 2008)

Columns and labels:
[1] = target: T1, murine Robo4 expressed endogenously on MS1 cells (mouse, UniProt Q8C310 28-1012); experiment: FACS on MS1 cells, Alexa 488 detection
T1 construct: whole, on cells
T1 sequence (looked up): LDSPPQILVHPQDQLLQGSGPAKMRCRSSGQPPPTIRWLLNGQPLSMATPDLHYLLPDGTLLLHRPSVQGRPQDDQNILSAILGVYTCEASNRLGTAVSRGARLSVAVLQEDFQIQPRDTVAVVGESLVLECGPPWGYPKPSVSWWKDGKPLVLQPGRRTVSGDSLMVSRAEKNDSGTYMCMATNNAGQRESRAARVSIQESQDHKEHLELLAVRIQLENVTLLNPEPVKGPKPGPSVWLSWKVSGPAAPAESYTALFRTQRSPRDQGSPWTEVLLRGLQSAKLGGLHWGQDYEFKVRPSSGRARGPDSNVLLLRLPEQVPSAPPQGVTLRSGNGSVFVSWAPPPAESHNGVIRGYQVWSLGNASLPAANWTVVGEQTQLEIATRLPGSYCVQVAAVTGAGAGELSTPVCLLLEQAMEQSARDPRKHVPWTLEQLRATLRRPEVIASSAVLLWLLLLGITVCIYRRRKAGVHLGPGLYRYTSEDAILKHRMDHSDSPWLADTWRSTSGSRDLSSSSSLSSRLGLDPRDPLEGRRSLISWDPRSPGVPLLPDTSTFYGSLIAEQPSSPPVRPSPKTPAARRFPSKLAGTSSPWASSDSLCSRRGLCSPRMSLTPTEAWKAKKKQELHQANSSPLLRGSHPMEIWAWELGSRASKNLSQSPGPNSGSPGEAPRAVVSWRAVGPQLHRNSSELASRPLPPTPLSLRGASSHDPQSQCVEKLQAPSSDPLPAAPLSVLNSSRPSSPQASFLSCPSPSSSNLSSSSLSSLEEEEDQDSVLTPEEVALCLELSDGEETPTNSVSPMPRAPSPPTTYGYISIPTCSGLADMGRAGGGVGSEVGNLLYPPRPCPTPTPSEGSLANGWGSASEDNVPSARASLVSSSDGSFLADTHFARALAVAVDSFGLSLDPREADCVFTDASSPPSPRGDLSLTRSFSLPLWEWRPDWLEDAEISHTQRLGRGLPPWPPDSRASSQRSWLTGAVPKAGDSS

[2] = target: T2, human Robo4 expressed endogenously on HUVEC cells (human, UniProt Q8WZ75 28-1007); experiment: FACS on HUVEC cells, Alexa 488 detection
T2 sequence: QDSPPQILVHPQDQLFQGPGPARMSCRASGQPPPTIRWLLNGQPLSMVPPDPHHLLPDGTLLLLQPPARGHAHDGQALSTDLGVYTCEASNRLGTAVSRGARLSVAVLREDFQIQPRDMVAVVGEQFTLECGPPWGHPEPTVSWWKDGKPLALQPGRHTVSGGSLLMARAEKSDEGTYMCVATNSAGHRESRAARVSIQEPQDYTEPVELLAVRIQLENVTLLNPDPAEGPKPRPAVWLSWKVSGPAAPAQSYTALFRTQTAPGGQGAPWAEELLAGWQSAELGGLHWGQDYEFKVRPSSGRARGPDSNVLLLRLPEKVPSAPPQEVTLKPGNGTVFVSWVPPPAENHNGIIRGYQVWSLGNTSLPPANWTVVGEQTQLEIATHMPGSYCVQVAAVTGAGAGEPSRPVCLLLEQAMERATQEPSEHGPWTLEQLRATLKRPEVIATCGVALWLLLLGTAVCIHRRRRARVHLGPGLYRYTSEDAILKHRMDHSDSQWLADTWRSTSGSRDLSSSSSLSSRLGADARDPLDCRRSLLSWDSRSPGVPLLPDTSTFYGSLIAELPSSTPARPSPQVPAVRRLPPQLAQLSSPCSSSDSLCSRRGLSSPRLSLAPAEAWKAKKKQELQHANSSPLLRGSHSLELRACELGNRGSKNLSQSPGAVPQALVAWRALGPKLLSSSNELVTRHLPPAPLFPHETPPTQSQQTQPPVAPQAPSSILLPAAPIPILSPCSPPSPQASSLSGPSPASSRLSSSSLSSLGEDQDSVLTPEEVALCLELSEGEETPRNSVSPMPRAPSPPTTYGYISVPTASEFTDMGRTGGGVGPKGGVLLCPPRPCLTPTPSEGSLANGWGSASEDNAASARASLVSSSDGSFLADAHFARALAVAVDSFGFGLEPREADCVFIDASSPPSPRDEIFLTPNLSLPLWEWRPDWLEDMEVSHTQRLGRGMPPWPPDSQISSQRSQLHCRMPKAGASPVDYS

binding result [1]: binds
binding result [2]: binds
B1: anti-Robo4 antibody YW71.22 (full length) (antibody, V domains shown)
VH: EVQLVESGGGLVQPGGSLRLSCAASGFTINGYYIHWVRQAPGKGLEWVGFIYPAGGDTDYADSVKGRFTISADTSKNTAYLQMNSLRAEDTAVYYCARLIGNKFGWSSYGMDYWGQGTLVTVSS
VL: DIQMTQSPSSLSASVGDRVTITCRASQDVSTAVAWYQQKPGKAPKLLIYSASFLYSGVPSRFSGSGSGTDFTLTISSLQPEDFATTYCQQSYTTPPTFGQGTKVEIKR
notes: also called parent antibody
